Measurements: article PMC7480041 (bioRxiv, 2020)

B1: mBG21 (antibody, V domains shown)
VH: QIQLVQSGPELKKPGETVKISCKASGYTFTDYSMHWVKQAPGKGSKWMGWINTETGEPTYADDFKGRFAFSLETSASTAYLQINNLKNEDTATYFCALRRWGQGTLVTVSS
VL: IVMTQTPKFLLVSAGDRVTITCKASQSVSNDVAWFQQKPGQSPKKLLIYFASNRYTGVPDRFTGSGYGTDFTFTITTVQAEDLAVYFCQQDYSSPWTFGGGTKLEIK
B2: mBG22 (antibody, V domains shown)
VH: QIQLVQSGPELKKPGETVKISCKASGYTFTDYSMHWVKQAPGKGSKWMGWINTETGEPTYADDFKGRFAFSLETSASTAYLQINNLKNEDTATYFCALRRWGQGTLVTVSA
VL: IVMTQTPKFLLVSAGDRVTITCKASQSVSNDVAWFQQKPGQSPKLLIYFASNRYTGVPDRFTGSGYGTDFTFTITTVQAEDLAVYFCQQDYSSPWTFGGGTKLEIK
B3: mBG67 (antibody, V domains shown)
VH: EVQLVESGGGLVQPGGSLKLSCAASGFTFSNYGMSWVRQTPDKRLELVATINRNGGSTYYLDSVKVRFTISRDNAKSTLFLQLSSLKSDDTAMYYCARIYDFDEDYFDVWGAGTTVTVSS
VL: QIVLTQSPAIMSASLGERVTMTCTASSSVSSSYLHWYQQKPGSSPKLWIYSTSNLASGVPARFSGSGSGTSYSLTISSMEAEDAATYYCLQYHRSPWTFGGGTKLEIK
B4: mBG17 (antibody, V domains shown)
VH: EVKLEESGGGLVQPGGSMKFSCVASGFTFSDYWMNWVRQSPDKGLEWVAEIRLKSNNYATHYAASVKGRFTISRDDSKSSVYLQMNNLRAEDSGIYYCTRSAMDYWGQGTSVTVSS
VL: DIVMSQSPSSLAVSVGEKITMSCKSSQSLLYTSDQKNYLAWFQQKPGQSPKLLIFWASTRDSGVPDRFTGSGSGTDFTLTISSVKAEDLAVYYCQQFYNYPRTFGGGTKLEIK

Legend:
Assay in all cases: ELISA
[1] = target: recombinant HuCoV-NL63 N protein (100–377) (HuCoV-NL63, UniProt Q6Q1R8)
[2] = target: recombinant SARS-CoV N protein (133–422) (SARS-CoV, UniProt P59595)
Chain of recombinant SARS-CoV N protein (133–422) (SARS-CoV, UniProt P59595) (P59595 133-422): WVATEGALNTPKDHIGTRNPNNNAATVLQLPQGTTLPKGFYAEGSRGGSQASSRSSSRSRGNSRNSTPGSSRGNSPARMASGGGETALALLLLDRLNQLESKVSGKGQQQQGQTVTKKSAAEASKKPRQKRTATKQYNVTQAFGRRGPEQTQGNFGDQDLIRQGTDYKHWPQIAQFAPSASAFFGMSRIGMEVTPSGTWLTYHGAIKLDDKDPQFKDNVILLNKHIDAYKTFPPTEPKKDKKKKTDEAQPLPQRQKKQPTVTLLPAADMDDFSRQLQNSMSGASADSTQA

[3] = target: recombinant SARS-CoV N protein (133–422) (SARS-CoV, UniProt P59595 133-422)
Chain of recombinant SARS-CoV N protein (133–422) (SARS-CoV, UniProt P59595 133-422) (P59595 133-422): as above

[4] = target: T1, recombinant HuCoV-NL63 N protein (100–377) (HuCoV-NL63, UniProt Q6Q1R8 100-377)
T1 sequence: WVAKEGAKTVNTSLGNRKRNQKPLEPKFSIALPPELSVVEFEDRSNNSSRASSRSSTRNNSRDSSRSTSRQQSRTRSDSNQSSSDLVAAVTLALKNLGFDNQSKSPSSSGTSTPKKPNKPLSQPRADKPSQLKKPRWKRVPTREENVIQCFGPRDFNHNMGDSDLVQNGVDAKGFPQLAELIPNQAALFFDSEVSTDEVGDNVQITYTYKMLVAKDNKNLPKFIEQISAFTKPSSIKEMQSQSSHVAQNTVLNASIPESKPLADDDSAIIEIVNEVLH

| Binder | corrected average ELISA signal [1] | corrected average ELISA signal [2] | corrected average ELISA signal [3] | corrected average ELISA signal [4] |
| --- | --- | --- | --- | --- |
| B1 | 0.47 | 1.49 |  |  |
| B2 |  |  | 0.76 | 0.51 |
| B3 |  |  | 0.39 |  |
| B4 |  |  | 1.39 | 0.54 |
